The text below walks through data of paper PMC6488673, “Crystal structure of the Lin28-interacting module of human terminal uridylyltransferase that regulates let-7 expression”.

This data set has as its target T1, hTUT4_N;hLin28A (human;human, UniProt Q5TAX3;Q9H9Z2 253-578+611-723;1-209, internal_change|).
T1 sequence 1: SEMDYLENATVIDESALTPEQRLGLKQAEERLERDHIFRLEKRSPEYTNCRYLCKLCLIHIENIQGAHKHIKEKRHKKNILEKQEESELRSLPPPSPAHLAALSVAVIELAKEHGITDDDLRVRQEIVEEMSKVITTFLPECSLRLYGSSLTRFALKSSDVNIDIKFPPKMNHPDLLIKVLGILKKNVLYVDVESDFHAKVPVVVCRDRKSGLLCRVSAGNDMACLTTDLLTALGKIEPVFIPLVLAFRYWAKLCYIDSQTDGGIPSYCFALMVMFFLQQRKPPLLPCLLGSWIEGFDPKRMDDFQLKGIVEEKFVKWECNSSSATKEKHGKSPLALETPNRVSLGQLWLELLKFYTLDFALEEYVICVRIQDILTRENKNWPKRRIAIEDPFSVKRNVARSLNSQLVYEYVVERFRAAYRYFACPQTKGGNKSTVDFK
T1 sequence 2: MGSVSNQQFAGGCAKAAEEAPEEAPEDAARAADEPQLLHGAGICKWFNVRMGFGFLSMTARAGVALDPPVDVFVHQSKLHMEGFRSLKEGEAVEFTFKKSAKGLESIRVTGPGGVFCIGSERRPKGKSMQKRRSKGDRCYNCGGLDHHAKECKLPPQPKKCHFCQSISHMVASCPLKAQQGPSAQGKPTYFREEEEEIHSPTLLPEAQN
Description: EMSA; ternary complex; 300 nM each protein, 100 nM RNA; EMSA: 50 mM Tris-HCl pH 8.5, 100 mM NaCl, 10 mM MgCl2, 10 mM beta-mercaptoethanol, 10% glycerol, 10 min, room temperature; Tb(III) footprinting: same salts, 5%. Conditions: protein: recombinant;recombinant; tags: C-terminal expression tag, residues 724-731 (pET22b, XhoI, Ni-NTA);N-terminal His tag (pET28b; Ni-NTA purified); copies: 1;1; label: none in EMSA (ethidium bromide stain); hairpin.

B1: pre-let-7a-1 (structured_RNA)
RNA: UGAGGUAGUAGGUUGUAUAGUUUUAGGGUCACACCCACCACUGGGAGAUAACUAUACAAUCUACUGUCUUUC
On to B1, for which the binding result was “binds”.
